Data: patent US20210371487A1
Where two headings read alike, the source gives them in different places.

B1: rFVII-CTP (protein)
chain: AVFVTQEEAHGVLHRRRRANAFLEELRPGSLERECKEEQCSFEEAREIFKDAERTKLFWISYSDGDQCASSPCQNGGSCKDQLQSYICFCLPAFEGRNCETHKDDQLICVNENGGCEQYCSDHTGTKRSCRCHEGYSLLADGVSCTPTVEYPCGKIPILEKRNASKPQGRIVGGKVCPKGECPWQVLLLVNGAQLCGGTLINTIWVVSAAHCFDKIKNWRNLIAVLGEHDLSEHDGDEQSRRVAQVIIPSTYVPGTTNHDIALLRLHQPVVLTDHVVPLCLPERTFSERTLAFVRFSLVSGWGQLLDRGATALELMVLNVPRLMTQDCLQQSRKVGDSPNITEYMFCAGYSDGSKDSCKGDSGGPHATHYRGTWYLTGIVSWGQGCATVGHFGVYTRVSQYIEWLQKLMRSEPRPGVLLRAPFPSSSSKAPPPSLPSPSRLPGPSDTPILPQ

Legend:
Factor X [1] = target: Factor X (UniProt P00742); assay: cell-based or functional assay
Factor X [2] = target: Factor X (UniProt P00742); assay: cell-based or functional assay; remark: listed apart in the source
Factor X [3] = target: Factor X (UniProt P00742)

Sequence of Factor X, P00742 (P00742 whole entry, looked up): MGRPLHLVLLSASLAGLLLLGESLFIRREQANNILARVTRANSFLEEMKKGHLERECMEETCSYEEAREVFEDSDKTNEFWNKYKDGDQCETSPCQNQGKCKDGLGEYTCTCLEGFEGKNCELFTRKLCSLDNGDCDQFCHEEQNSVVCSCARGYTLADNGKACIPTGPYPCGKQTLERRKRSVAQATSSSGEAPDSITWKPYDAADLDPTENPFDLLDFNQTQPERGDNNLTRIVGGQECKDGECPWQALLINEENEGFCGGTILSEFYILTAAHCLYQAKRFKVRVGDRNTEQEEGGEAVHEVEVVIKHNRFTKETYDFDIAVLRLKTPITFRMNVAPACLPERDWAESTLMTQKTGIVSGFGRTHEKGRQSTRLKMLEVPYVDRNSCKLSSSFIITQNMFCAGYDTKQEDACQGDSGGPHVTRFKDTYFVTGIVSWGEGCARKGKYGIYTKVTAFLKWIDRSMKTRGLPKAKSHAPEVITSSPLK

Row | Molecule | EC50, FIX chromogenic activity (BIOPHEN kit) (Factor X [2]) [µg/mL] | Sample/plasma EC50 ratio (FIX chromogenic activity, BIOPHEN kit) (Factor X [2]) | also measured
1 | rhFIX (American Diagnostics) (from UniProt P00740 47-461) (enzyme) | 0.021 |  | EC50, FIX chromogenic activity (BIOPHEN kit) (Factor X [1]): 0.0687 µg/mL
2 | FIX-CTP3 (enzyme) |  | 2 | 
3 | FIX-CTP5 (enzyme) |  | 2.73 | 
4 | FIX-CTP-CTP (enzyme) | 0.382 |  | EC50, FIX chromogenic activity (BIOPHEN kit) (Factor X [1]): 0.505 µg/mL
5 | FIX-CTP-CTP |  |  | fold decrease in the enzymatic activity (chromogenic assay) (Factor X [3]): An approximately 15-fold decrease in the enzymatic activity of the FIX-(CTP)2 harvest was observed.; fold decrease in the enzymatic activity versus normal human pulled plasma (chromogenic assay) (Factor X [3]): a 16.5-fold decrease versus normal human pulled plasma; fold decrease in the enzymatic activity vs. recombinant FIX (chromogenic assay) (Factor X [3]): An approximately 7-fold decrease in the enzymatic activity of FIX-CTP-CTP was observed vs. recombinant FIX
6 | FIX-CTP4 (enzyme) |  | 5.35 | 
7 | FIX-CTP (from UniProt P00740 47-461) (enzyme) | 1.64 |  | 
8 | B1 |  |  | FVII chromogenic activity (AssaySense Human FVII Chromogenic Activity Assay Kit) (Factor X, P00742): The addition of the CTP peptide at the C-terminal of the rFVII protein did not impair the FVII serine protease activity
